The text below walks through data of article PMC5469197, “ANGUSTIFOLIA, a Plant Homolog of CtBP/BARS Localizes to Stress Granules and Regulates Their Formation” (Frontiers in Plant Science, 2017).

Common to all, as to test: co-IP; LUMIER in HEK293TN cells: Prot-A fusion co-transfected with Renilla luciferase fusion (AN always the luciferase fusion with the interactors); luciferase activity before (input) and after pulldown; percentage pulldown = pulldown/input x 100; empty vectors as negative control; positive if more than two times the background
Conditions in all cases: partners not purified

For test [1], the target named is T1, KH DOMAIN-CONTAINING PROTEIN (AT2G38610), Prot-A fusion (Arabidopsis thaliana, UniProt Q9ZVI3 1-286).
T1 construct: KH domain-containing protein, Arabidopsis thaliana, AT2G38610; CDS amplified from Col-0 cDNA; source: HEK293TN cells, transfected; not shown: Protein A (Staphylococcus aureus), N-terminal, kept
T1 sequence (looked up): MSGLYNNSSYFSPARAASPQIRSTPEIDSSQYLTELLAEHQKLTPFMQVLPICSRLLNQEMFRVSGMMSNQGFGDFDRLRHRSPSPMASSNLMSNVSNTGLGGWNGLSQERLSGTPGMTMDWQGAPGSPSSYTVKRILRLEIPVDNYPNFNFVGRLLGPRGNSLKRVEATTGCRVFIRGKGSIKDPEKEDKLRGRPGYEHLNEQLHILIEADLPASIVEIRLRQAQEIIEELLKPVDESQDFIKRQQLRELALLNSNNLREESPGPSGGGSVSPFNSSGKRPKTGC

In test [2] the target is T2, RNA BINDING PROTEIN 47B (RBP47B), Prot-A fusion (Arabidopsis thaliana, UniProt Q0WW84 1-435).
T2 construct: RBP47B, Arabidopsis thaliana, AT3G19130; CDS amplified from Col-0 cDNA; source: HEK293TN cells, transfected; not shown: Protein A (Staphylococcus aureus), N-terminal, kept
T2 sequence (looked up): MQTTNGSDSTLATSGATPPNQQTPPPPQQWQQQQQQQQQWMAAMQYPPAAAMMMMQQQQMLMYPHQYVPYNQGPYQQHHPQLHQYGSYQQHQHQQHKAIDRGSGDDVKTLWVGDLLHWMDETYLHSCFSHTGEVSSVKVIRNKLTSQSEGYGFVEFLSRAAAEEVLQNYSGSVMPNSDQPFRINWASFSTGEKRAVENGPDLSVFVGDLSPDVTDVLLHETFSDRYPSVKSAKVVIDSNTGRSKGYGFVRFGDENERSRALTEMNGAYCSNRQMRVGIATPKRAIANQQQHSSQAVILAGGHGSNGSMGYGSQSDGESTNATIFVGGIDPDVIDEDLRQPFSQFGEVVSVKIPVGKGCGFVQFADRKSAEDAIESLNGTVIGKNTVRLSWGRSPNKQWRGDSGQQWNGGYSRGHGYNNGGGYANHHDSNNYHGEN

The target in test [3] is T3, POLY(A) BINDING PROTEIN 2 (PAB2), Prot-A fusion (Arabidopsis thaliana, UniProt P42731 1-629).
T3 construct: CDS amplified from Col-0 cDNA; also called AtPAB2; source: HEK293TN cells, transfected; not shown: Protein A (Staphylococcus aureus), N-terminal, kept
T3 sequence (looked up): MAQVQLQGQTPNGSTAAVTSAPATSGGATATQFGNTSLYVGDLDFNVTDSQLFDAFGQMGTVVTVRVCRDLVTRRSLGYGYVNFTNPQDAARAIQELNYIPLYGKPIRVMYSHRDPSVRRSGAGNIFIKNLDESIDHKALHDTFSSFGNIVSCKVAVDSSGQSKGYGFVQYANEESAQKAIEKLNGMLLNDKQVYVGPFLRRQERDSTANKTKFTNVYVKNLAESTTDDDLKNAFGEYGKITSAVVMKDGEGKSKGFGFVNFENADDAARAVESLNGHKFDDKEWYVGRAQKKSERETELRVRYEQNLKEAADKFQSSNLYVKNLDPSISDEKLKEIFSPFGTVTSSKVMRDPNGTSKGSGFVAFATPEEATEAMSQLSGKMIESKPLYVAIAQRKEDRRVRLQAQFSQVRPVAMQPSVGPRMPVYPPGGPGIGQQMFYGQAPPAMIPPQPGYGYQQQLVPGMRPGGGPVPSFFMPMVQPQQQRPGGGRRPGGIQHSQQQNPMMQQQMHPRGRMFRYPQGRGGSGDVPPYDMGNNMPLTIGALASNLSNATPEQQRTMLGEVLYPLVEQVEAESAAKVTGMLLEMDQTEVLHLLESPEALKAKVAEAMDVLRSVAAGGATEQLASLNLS

Test [4] deals with T4, PO…-BINDING PROTEIN RBP47C′, Prot-A fusion (Arabidopsis thaliana, UniProt Q9SX80 1-434).
T4 construct: RBP47C′, Arabidopsis thaliana, AT1G47500; CDS amplified from Col-0 cDNA; source: HEK293TN cells, transfected; not shown: Protein A (Staphylococcus aureus), N-terminal, kept
T4 sequence (looked up): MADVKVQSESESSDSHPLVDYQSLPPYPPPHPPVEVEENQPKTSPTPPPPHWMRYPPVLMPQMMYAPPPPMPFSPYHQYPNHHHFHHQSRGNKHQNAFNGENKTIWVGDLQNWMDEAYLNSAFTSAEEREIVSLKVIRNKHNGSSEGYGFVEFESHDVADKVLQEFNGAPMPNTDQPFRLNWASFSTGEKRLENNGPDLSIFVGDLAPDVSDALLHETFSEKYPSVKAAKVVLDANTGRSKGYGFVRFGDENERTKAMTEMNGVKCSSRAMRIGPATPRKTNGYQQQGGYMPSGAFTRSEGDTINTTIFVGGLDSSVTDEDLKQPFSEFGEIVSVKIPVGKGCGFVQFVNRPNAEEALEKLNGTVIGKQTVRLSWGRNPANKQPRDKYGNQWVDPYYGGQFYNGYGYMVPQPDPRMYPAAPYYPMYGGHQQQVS

B1: AN, Renilla luciferase fusion (LUMIER) (natural protein, Arabidopsis thaliana, UniProt O23702 1-636, looked up)
chain: MSKIRSSATMPHRDQPSPASPHVVTLNCIEDCALEQDSLAGVAGVEYVPLSRIADGKIESATAVLLHSLAYLPRAAQRRLRPHQLILCLGSADRAVDSTLAADLGLRLVHVDTSRAEEIADTVMALILGLLRRTHLLSRHALSASGWLGSLQPLCRGMRRCRGMVLGIVGRSVSARYLASRSLAFKMSVLYFDVPEGDEERIRPSRFPRAARRMDTLNDLLAASDVISLHCALTNDTVQILNAECLQHIKPGAFLVNTGSCQLLDDCAVKQLLIDGTIAGCALDGAEGPQWMEAWVKEMPNVLILPRSADYSEEVWMEIREKAISILHSFFLDGVIPSNTVSDEEVEESEASEEEEQSPSKHEKLAIVESTSRQQGESTLTSTEIVRREASELKESLSPGQQHVSQNTAVKPEGRRSRSGKKAKKRHSQQKYMQKTDGSSGLNEESTSRRDDIAMSDTEEVLSSSSRCASPEDSRSRKTPLEVMQESSPNQLVMSSKKFIGKSSELLKDGYVVALYAKDLSGLHVSRQRTKNGGWFLDTLSNVSKRDPAAQFIIAYRNKDTVGLRSFAAGGKLLQINRRMEFVFASHSFDVWESWSLEGSLDECRLVNCRNSSAVLDVRVEILAMVGDDGITRWID
notes: ANGUSTIFOLIA (AN), Arabidopsis thaliana, AT1G01510; CDS amplified from Col-0 cDNA; in the dimerisation test the second copy must have been the N-terminal protein A fusion (surmised from the LUMIER format); also called wild-type AN; source: HEK293TN cells, transfected; not shown: Renilla reniformis luciferase, N-terminal, kept
For the molecule B1, the “fold change from background” value in test [1] worked out at 2.93 fold; in test [2] it was 3.53 fold; in test [3], 7.67 fold; in test [4] it was 3.07 fold. The percentage pulldown in test [1] was found to be 0.28%; in test [2], 0.33%; in test [3], 0.71%; in test [4], 0.29%.
